The target in assay [1] is T1, human PD-1-Ig fusion protein (human, UniProt Q15116 25-167).
T1 construct: not shown: Ig part of the fusion protein
Briefly: ELISA on human PD-1-Ig fusion protein. In general terms: ELISA stands for enzyme-linked immunosorbent assay.

Assay [2] addresses T2, human PD-1 expressed on cells (human, UniProt Q15116 25-288).
T2 construct: whole, on cells; those cells are treated here as the same human PD-1; also called Programmed Death 1; human PD-1 transfected Jurkat cells
Briefly: FACS on human PD-1 transfected Jurkat cells.

Assay [3] deals with T3, cynomolgus PD-1 expressed on cells (cynomolgus).
T3 construct: whole, on cells; also called cells transfected with cynomolgus PD-1
Description: FACS on cynomolgus T cells (e.g., CD3/CD28 activated CD4 T cells).

For assay [4], the target named is T2, human PD-1 expressed on cells. Description: competition binding assay; blocks PD-L2 binding to human PD-1-expressing 300.19 cells.
Assay [5] shares this target. Briefly: competition binding assay; blocks PD-L1 binding to human PD-1-expressing 300.19 cells.
For assay [6], the target named is T3, cynomolgus PD-1 expressed on cells. Briefly: FACS on cells transfected with cynomolgus PD-1.
Assay [7] has as its target T2, human PD-1 expressed on cells. Description: cell-based or functional assay.
The target is the same in assay [8]. Description: FACS blocking of PD-L1-Ig binding to PD-1-expressing 300.19 cells.

The results in this text go back to patent US20180222982A1 (Novartis, published 2018).

Where a chain is given by its changes, count along the chain named. In names and notes the source's numbering stands.

T2 sequence (Q15116 25-288): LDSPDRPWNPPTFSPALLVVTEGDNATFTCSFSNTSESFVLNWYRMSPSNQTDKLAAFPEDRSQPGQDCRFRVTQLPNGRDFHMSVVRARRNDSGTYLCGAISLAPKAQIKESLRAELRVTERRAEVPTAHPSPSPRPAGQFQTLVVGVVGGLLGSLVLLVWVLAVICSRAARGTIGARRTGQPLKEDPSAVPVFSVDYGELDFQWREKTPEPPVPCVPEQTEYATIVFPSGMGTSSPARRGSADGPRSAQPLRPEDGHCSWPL
T1 sequence (Q15116 25-167): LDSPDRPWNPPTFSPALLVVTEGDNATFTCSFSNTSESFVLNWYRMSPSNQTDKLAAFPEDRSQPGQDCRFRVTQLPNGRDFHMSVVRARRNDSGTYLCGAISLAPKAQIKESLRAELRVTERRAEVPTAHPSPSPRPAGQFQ

B1: murine anti-PD-1 monoclonal antibody BAP049 (antibody, V domains shown)
VH: QVQLQQSGSELVRPGASVKLSCKASGYTFTTYWMHWVRQRPGQGLEWIGNIYPGTGGSNFDEKFKNRTSLTVDTSSTTAYMHLASLTSEDSAVYYCTRWTTGTGAYWGQGTLVTVSA
VL: DIVMTQSPSSLTVTAGEKVTMSCKSSQSLLDSGNQKNFLTWYQQKPGQPPKLLIFWASTRESGVPDRFTGSGSVTDFTLTISSVQAEDLAVYYCQNDYSYPCTFGGGTKLEIK
notes: the murine constant regions are not; also called Mu mAb; murine mAb BAP049
The term Kd denotes the constant that tells how readily two partners part at equilibrium. For orientation: IC50 means the concentration at which inhibition is half-maximal. High values mean a need for much substance, low ones inhibition by little substance. As for B1, the Kd amounted to 0.04 nM in assay [1], 0.06 nM in assay [2], 0.4 nM in assay [3] and 0.6 nM in assay [6]. For the same molecule, the IC50 in assay [4] stood at 0.9 nM; in assay [5] it was 0.3 nM.

B2: humanized anti-PD-1 antibody BAP049-Clone-E (antibody, human IgG4 S228P, kappa)
heavy: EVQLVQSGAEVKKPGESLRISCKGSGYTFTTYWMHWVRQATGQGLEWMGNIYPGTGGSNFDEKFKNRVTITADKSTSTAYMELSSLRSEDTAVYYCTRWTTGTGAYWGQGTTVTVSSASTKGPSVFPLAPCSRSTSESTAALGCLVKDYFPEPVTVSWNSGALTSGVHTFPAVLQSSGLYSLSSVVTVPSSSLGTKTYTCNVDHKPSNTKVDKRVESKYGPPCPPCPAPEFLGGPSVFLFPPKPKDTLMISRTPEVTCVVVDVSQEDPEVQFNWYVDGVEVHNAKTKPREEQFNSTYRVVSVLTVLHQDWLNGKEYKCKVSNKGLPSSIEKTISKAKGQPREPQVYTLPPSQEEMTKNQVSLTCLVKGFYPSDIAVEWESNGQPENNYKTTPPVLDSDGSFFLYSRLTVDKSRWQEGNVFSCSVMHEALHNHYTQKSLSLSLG
light: EIVLTQSPATLSLSPGERATLSCKSSQSLLDSGNQKNFLTWYQQKPGQAPRLLIYWASTRESGVPSRFSGSGSGTDFTFTISSLEAEDAATYYCQNDYSYPYTFGQGTKVEIKRTVAAPSVFIFPPSDEQLKSGTASVVCLLNNFYPREAKVQWKVDNALQSGNSQESVTEQDSKDSTYSLSSTLTLSKADYEKHKVYACEVTHQGLSSPVTKSFNRGEC
On to B2, for which the “ex vivo EC50 for PD-1 blockade” value in assay [7] was found to be 0.42 µg/mL.

B3: humanized anti-PD-1 antibody BAP049-hum09 (antibody, human IgG4 S228P, kappa)
heavy: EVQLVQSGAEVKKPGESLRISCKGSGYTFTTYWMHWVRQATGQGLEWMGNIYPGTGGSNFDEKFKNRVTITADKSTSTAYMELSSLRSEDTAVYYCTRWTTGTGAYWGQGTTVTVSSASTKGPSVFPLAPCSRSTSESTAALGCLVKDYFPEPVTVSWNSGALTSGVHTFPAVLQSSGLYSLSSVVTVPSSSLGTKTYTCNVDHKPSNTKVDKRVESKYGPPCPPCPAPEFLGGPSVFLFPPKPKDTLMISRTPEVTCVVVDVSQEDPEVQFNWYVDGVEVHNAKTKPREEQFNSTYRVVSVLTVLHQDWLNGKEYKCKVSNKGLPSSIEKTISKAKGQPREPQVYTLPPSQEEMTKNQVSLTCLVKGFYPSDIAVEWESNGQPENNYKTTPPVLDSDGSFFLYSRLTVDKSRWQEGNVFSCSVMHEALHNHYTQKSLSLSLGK
light: B2 light with A9D, T10F, L11Q, L13V, S14T, G16K, R18K, A19V, L21I, S22T
notes: Whole IgG4(S228P)/kappa; tested as concentrated supernatant of transiently transfected CHO cells; also called Clone No. 09
Take B3: the “IC50 (read off the curve)” value in assay [8] was approximately 1 µg/mL.
